The supplement of paper PMC9112550, “Optimization of the antimicrobial peptide Bac7 by deep mutational scanning” (BMC Biology, 2022)

tested on: Escherichia coli TOP10; test: shrunken log2 fold change of peptide-encoding DNA abundance (4.5 h post-induction vs induction); higher = less antimicrobial activity (less host growth inhibition); settings: time post-induction: 4.5 h; library: site-saturation at positions 5, 18, 19, 20
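Note: peptides expressed intracellularly from a pBAD plasmid library in pooled LB shake-flask culture, induced with 0.3% L-arabinose, DNA abundance read by NGS, three biological replicates, DESeq2 with apeglm shrinkage.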

Sequence | shrunken log2 fold change
RRIRARPPRLPRPRPRPSFCPRP | 0.167
RRIRSRPPRLPRPRPRPGCVPRP | 0.247
RRIRNRPPRLPRPRPRPEDDPRP | -0.01
RRIRVRPPRLPRPRPRPRQQPRP | 0.168
RRIRNRPPRLPRPRPRPKPIPRP | 0.202
RRIRHRPPRLPRPRPRPPNTPRP | -0.0573
RRIRHRPPRLPRPRPRPRFKPRP | -0.153
RRIRGRPPRLPRPRPRPWMSPRP | 0.0647
RRIRTRPPRLPRPRPRPSMKPRP | 0.00896
RRIRNRPPRLPRPRPRPSEDPRP | -0.145
RRIRIRPPRLPRPRPRPIIYPRP | -0.396
RRIRSRPPRLPRPRPRPQHPPRP | -0.239
RRIRKRPPRLPRPRPRPWCTPRP | -0.0115
RRIRMRPPRLPRPRPRPCDFPRP | -0.121
RRIRGRPPRLPRPRPRPAWRPRP | 0.934
RRIRQRPPRLPRPRPRPPSFPRP | 0.0399
RRIRSRPPRLPRPRPRPAHNPRP | 0.133
RRIRTRPPRLPRPRPRPWLNPRP | -0.0665
RRIRERPPRLPRPRPRPAMMPRP | -0.163
RRIRRRPPRLPRPRPRPWEDPRP | 0.0594
RRIRFRPPRLPRPRPRPMIQPRP | -0.0594
RRIRERPPRLPRPRPRPNWEPRP | 0.0232
RRIRPRPPRLPRPRPRPRRQPRP | 0.673
RRIRVRPPRLPRPRPRPYLDPRP | 0.0545
RRIRWRPPRLPRPRPRPKHAPRP | 0.222

Sequence | shrunken log2 fold change
RRIRPRPPRLPRPRPRPQKFPRP | -0.178
RRIRPRPPRLPRPRPRPHIDPRP | -0.215
RRIRLRPPRLPRPRPRPRFLPRP | -0.144
RRIRQRPPRLPRPRPRPGVVPRP | 0.000417
RRIRSRPPRLPRPRPRPKQNPRP | 0.0535
RRIRLRPPRLPRPRPRPAYVPRP | -0.177
RRIRPRPPRLPRPRPRPDEQPRP | 0.318
RRIRLRPPRLPRPRPRPWYTPRP | -0.57
RRIRLRPPRLPRPRPRPRAAPRP | 0.417
RRIRFRPPRLPRPRPRPWKVPRP | -0.00133
RRIRRRPPRLPRPRPRPGYMPRP | 0.0939
RRIRIRPPRLPRPRPRPVQLPRP | -0.0585
RRIRCRPPRLPRPRPRPFSQPRP | -0.209
RRIRKRPPRLPRPRPRPFQCPRP | -0.01
RRIRHRPPRLPRPRPRPVHYPRP | -0.495
RRIRARPPRLPRPRPRPPHWPRP | 1.08
RRIRGRPPRLPRPRPRPPSTPRP | 0.643
RRIRWRPPRLPRPRPRPNWNPRP | -0.0303
RRIRMRPPRLPRPRPRPMVHPRP | 0.0734
RRIRHRPPRLPRPRPRPRQNPRP | 0.0341
RRIRGRPPRLPRPRPRPMQWPRP | -0.0537
RRIRIRPPRLPRPRPRPIHNPRP | -0.936
RRIRARPPRLPRPRPRPGCEPRP | 1.1
RRIRPRPPRLPRPRPRPQCEPRP | -0.0437
RRIRPRPPRLPRPRPRPKVMPRP | 0.294

Sequence | shrunken log2 fold change
RRIRGRPPRLPRPRPRPFGDPRP | 0.0154
RRIRTRPPRLPRPRPRPTSFPRP | 0.0555
RRIRTRPPRLPRPRPRPPHEPRP | 0.373
RRIRARPPRLPRPRPRPKHSPRP | 0.0875
RRIRFRPPRLPRPRPRPLMTPRP | 0.189
RRIRDRPPRLPRPRPRPDEQPRP | 0.0528
RRIRVRPPRLPRPRPRPKKSPRP | 0.585
RRIRLRPPRLPRPRPRPQCHPRP | 0.0598
RRIRSRPPRLPRPRPRPVDIPRP | 0.147
RRIRYRPPRLPRPRPRPCRRPRP | -0.0474
RRIRYRPPRLPRPRPRPGSEPRP | -0.202
RRIRTRPPRLPRPRPRPRTEPRP | 0.153
RRIRVRPPRLPRPRPRPEGPPRP | 0.239
RRIRSRPPRLPRPRPRPDGVPRP | -0.115
RRIRNRPPRLPRPRPRPCGNPRP | -0.0905
RRIRQRPPRLPRPRPRPKNMPRP | -0.646
RRIRRRPPRLPRPRPRPEVEPRP | 0.0165
RRIRMRPPRLPRPRPRPKVGPRP | 1.27
RRIRRRPPRLPRPRPRPSIMPRP | -0.213
RRIRQRPPRLPRPRPRPYGNPRP | -0.0235
RRIRYRPPRLPRPRPRPHSEPRP | -0.0168
RRIRDRPPRLPRPRPRPQDSPRP | 0.00388
RRIRNRPPRLPRPRPRPTWTPRP | 0.201
RRIRDRPPRLPRPRPRPVMCPRP | 0.156
RRIRPRPPRLPRPRPRPHECPRP | -1.31

Sequence | shrunken log2 fold change
RRIRYRPPRLPRPRPRPANWPRP | -0.0751
RRIRFRPPRLPRPRPRPNWRPRP | -0.0764
RRIRCRPPRLPRPRPRPNYTPRP | -0.879
RRIRQRPPRLPRPRPRPSNKPRP | -0.513
RRIRWRPPRLPRPRPRPVVNPRP | 0.261
RRIRYRPPRLPRPRPRPNWPPRP | 0.394
RRIRERPPRLPRPRPRPHVKPRP | -0.767
RRIRVRPPRLPRPRPRPSYPPRP | -0.392
RRIRHRPPRLPRPRPRPSWSPRP | -0.235
RRIRWRPPRLPRPRPRPPFYPRP | -0.00501
RRIRYRPPRLPRPRPRPKTGPRP | -0.243
RRIRTRPPRLPRPRPRPGFLPRP | 0.122
RRIRYRPPRLPRPRPRPMDEPRP | -0.115
RRIRNRPPRLPRPRPRPFNVPRP | 0.109
RRIRKRPPRLPRPRPRPSVAPRP | 0.394
RRIRMRPPRLPRPRPRPTHLPRP | 0.396
RRIRSRPPRLPRPRPRPNEDPRP | -0.0395
RRIRMRPPRLPRPRPRPPRDPRP | 1.6
RRIRHRPPRLPRPRPRPLHEPRP | 0.0601
RRIRTRPPRLPRPRPRPIGMPRP | 0.0258
RRIRRRPPRLPRPRPRPRRMPRP | 0.206
RRIRTRPPRLPRPRPRPTYCPRP | -0.379
RRIRARPPRLPRPRPRPIFNPRP | 0.0119
RRIRDRPPRLPRPRPRPHCCPRP | -0.00968
RRIRHRPPRLPRPRPRPQNVPRP | -0.0702

Sequence | shrunken log2 fold change
RRIRFRPPRLPRPRPRPYLEPRP | -0.0738
RRIRDRPPRLPRPRPRPETNPRP | 0.443
RRIRKRPPRLPRPRPRPCWMPRP | 0.446
RRIRIRPPRLPRPRPRPYSDPRP | -0.186
RRIRFRPPRLPRPRPRPRSLPRP | 0.0152
RRIRWRPPRLPRPRPRPHRTPRP | -0.168
RRIRSRPPRLPRPRPRPKLHPRP | -0.0772
RRIRKRPPRLPRPRPRPPFEPRP | 0.143
RRIRLRPPRLPRPRPRPFMIPRP | -0.186
RRIRKRPPRLPRPRPRPDIPPRP | -0.109
RRIRDRPPRLPRPRPRPARKPRP | 0.574
RRIRWRPPRLPRPRPRPRMAPRP | 0.614
RRIRERPPRLPRPRPRPEHHPRP | -0.543
RRIRCRPPRLPRPRPRPDEYPRP | -0.231
RRIRSRPPRLPRPRPRPEKSPRP | -0.32
RRIRQRPPRLPRPRPRPNHCPRP | -0.0615
RRIRDRPPRLPRPRPRPNSCPRP | 0.0563
RRIRVRPPRLPRPRPRPSQHPRP | -0.39
RRIRNRPPRLPRPRPRPVHYPRP | -0.124
RRIRIRPPRLPRPRPRPEFMPRP | -0.25
RRIRTRPPRLPRPRPRPLQTPRP | -0.00743
RRIRCRPPRLPRPRPRPSHEPRP | -0.334
RRIRKRPPRLPRPRPRPNMLPRP | -0.0107
RRIRARPPRLPRPRPRPWAWPRP | 0.239
RRIRDRPPRLPRPRPRPMRDPRP | 0.131

Sequence | shrunken log2 fold change
RRIRCRPPRLPRPRPRPFCFPRP | -0.0725
RRIRDRPPRLPRPRPRPGIHPRP | -0.89
RRIRKRPPRLPRPRPRPACRPRP | 0.789
RRIRWRPPRLPRPRPRPPNRPRP | 0.148
RRIRHRPPRLPRPRPRPKAVPRP | -0.00256
RRIRGRPPRLPRPRPRPDETPRP | 0.349
RRIRMRPPRLPRPRPRPILEPRP | 0.142
RRIRDRPPRLPRPRPRPLGFPRP | -0.0377
RRIRERPPRLPRPRPRPCKFPRP | -0.214
RRIRMRPPRLPRPRPRPLVPPRP | 0.208
RRIRNRPPRLPRPRPRPCMKPRP | -0.507
RRIRNRPPRLPRPRPRPKSAPRP | 0.265
RRIRERPPRLPRPRPRPIEQPRP | -0.00133
RRIRLRPPRLPRPRPRPQDSPRP | -0.276
RRIRKRPPRLPRPRPRPGSQPRP | 0.359
RRIRHRPPRLPRPRPRPICIPRP | -0.577
RRIRSRPPRLPRPRPRPHGIPRP | -0.273
RRIRLRPPRLPRPRPRPRQEPRP | 0.0259
RRIRTRPPRLPRPRPRPDPWPRP | 0.0451
RRIRDRPPRLPRPRPRPVGFPRP | 0.859
RRIRQRPPRLPRPRPRPVKLPRP | -0.0467
RRIRQRPPRLPRPRPRPYMAPRP | -0.274
RRIRMRPPRLPRPRPRPYYKPRP | -0.611
RRIRCRPPRLPRPRPRPRPPPRP | 1.49
RRIRERPPRLPRPRPRPYLYPRP | -0.927
